Measured values as given in US8124835B2, “Acyl-coa-dependent diacylglycerol acyltransferas 1 (DGAT1) gene from Tropaeolum majus, protein encoded thereby and uses thereof” (National Research Council of Canada, priority 2006, dated 2012).

Assays:
[1] = system: Arabidopsis mutant line AS11; test: Complementation of Arabidopsis AS11 DGAT mutant by seed-specific expression of TmDGAT1; format: in vivo, Arabidopsis thaliana; settings: homozygous T3 seed lines, napin promoter
Experimental: FIG. 9. Complementation of A. thaliana AS11 mutant seed oil and fatty acid profile by expression of TmDGAT1. Transformation of Arabidopsis mutant line AS11 with the TmDGAT1 cDNA under the control of a napin promoter leads to a restoration of (A) fatty acid composition profile of the transgenic lines and (B) the WT level oil content. Total oil content (as percentage of mature seed dry weight) and fatty acid composition (% wt/wt) were determined on the seed oil extracted from T3 seeds of Arabidopsis pSE:WT and pSE:AS11 (empty plasmid) controls and from napin:TmDGAT1 AS11 transgenics lines.
The final binary vector (napin/DGAT/nos) was verified and electroporated into Agrobacterium tumefaciens cells strain GV3101 containing helper plasmid pMP90 (Koncz and Schell, 1986). Plasmid integrity was verified by DNA sequencing following its re-isolation from A. tumefaciens and transformation into E. coli. […]
The coding region of the TmDGAT1 (SEQ. ID. NO: 2) was cloned into a pSE vector behind the seed-specific napin promoter. […] At the same time several independent plasmid only control AS11 transgenic (pSE vector without DGAT1 insert) lines, as well as napin:TmDGAT1 in WT and pSE in WT transgenic lines were propagated and analyzed. […]

[2] = system: wild type (WT) Arabidopsis; test: Over-expression of TmDGAT1 in wild-type Arabidopsis; format: in vivo, Arabidopsis thaliana
From the text: FIG. 10. Over expression of the TmDGAT1 in Arabidopsis. Effect of transformation of Arabidopsis with the TmDGAT1 cDNA under the control of a napin promoter on (A) oil content and (B) average 1000-seed weight. Total oil content (as percentage of mature seed dry weight) and seed weight are shown for pSE (empty plasmid) in WT Arabidopsis (white bars), non-transformed WT Arabidopsis (black bars) and napin:TmDGAT1 transgenic homozygous T3 Arabidopsis lines (gray bars represent transgenic lines with a single insert and hatched bars represents transgenic lines with multiple inserts). (C) Fatty acid composition is shown for pSE (empty plasmid) in WT Arabidopsis and napin:TmDGAT1 transgenic homozygous T3 Arabidopsis lines. Homozygous T3 napin:TmDGAT1 lines were analyzed in triplicate, about 200 seeds per sample, accurately counted and weighed. For the plasmid only pSE in WT transgenic and non-transformed WT controls, ≧8 individual seed lots were similarly analyzed; the averaged values are presented.
FIG. 11. […]
Transgenic plants were selected and analyzed essentially as described previously (Jako et al., 2001; Mietkiewska et al., 2004). […]
Segregation analyses were performed to further confirm and select those transformants containing a single copy of the inserted fragment. […] Plants that contained the insertion (as shown by the presence of a PCR product from a napin/NOS junction using NN3 primer (5′-[…]-3′; SEQ ID NO: 22) and NN4 primer (5′-[…]-3′; SEQ ID NO: 23) and that carry a single locus insertion (as determined by a 3:1 segregation ratio of T2 seeds on kanamycin) were identified. Southern analyses were performed to further confirm and select those transformants containing single vs. multiple copies of the inserted fragment. DNA samples were digested with restriction enzymes KpnI (or BglII), resolved by electrophoresis on a 1% (w/v) agarose gel, and Southern blotting performed using a nylon filter (Hybond N+, Amersham) according to Sambrook et al. (1989). […]

B1: TmDGAT1: Tropaeolum majus acyl-CoA-dependent diacylglycerol acyltransferase 1, 518 amino acids (SEQ ID NO: 3), encoded by ORF SEQ ID NO: 2 (protein, listed as Tropaeolum majus)
chain: MAVAESSQNTTTMSGHGDSDLNNFRRRKPSSSVIEPSSSGFTSTNGVPATGHVAENRDQDRVGAMENATGSVNLIGNGGGVVIGNEEKQVGETDIRFTYRPSFPAHRRVRESPLSSDAIFKQSHAGLFNLCIVVLIAVNSRLIIENLMKYGWLIDTGFWFSSRSLGDWSIFMCCLTLPIFPLAAFIVEKLVQRNHISELVAVLLHVIVSTAAVLYPVIVILTCDSVYMSGVVLMLFGCIMWLKLVSYAHTSSDIRTLAKSGYKGDAHPNSTIVSCSYDVSLKSLAYFMVAPTLCYQPSYPRSSCIRKGWVVRQFVKLIVFIGLMGFIIEQYINPIVRNSKHPLKGDFLYAIERVLKLSVPNLYVWLCMFYSFFHLWLNILAELLRFGDREFYKDWWNAKTVAEYWKMWNMPVHRWMVRHLYFPCLRNGIPKEGAIIIAFLVSGAFHELCIAVPCHVFKLWAFIGIMFQVPLVLITNYLQEKFSNSMVGNMIFWFIFCILGQPMCVLLYYHDLINLKEK
- TAG levels of AS11 seed after expression [1]: at least as high as that found in wild type Arabidopsis
- fatty acid composition of AS11 seed oil after expression [1]: restoring the proportions of 18:1, 20:1 and 18:3 to give a WT profile
- net increase in oil content ([2]; best line (TD/WT 13-6)): 44%
- increase in DGAT activity ([2]; best line (TD/WT 13-6), mid-developing seed): two-fold
- increase in total proportion of mono-unsaturated fatty acids (18:1+20:1) in seed TAGs ([2]; data not shown): 2-3%
